This is an account of results in FireProtDB (doi:10.1111/j.1432-1033.1994.tb18977.x).

For this data set the following is noted: Saccharomyces cerevisiae (strain ATCC 204508 / S288c), pH 7, 30 °C, Urea, Fluorescence, Potassium phosphate 50 mM.

Cytochrome c isoform 1 wild type, P00044, sequence (P00044 whole entry, canonical isoform): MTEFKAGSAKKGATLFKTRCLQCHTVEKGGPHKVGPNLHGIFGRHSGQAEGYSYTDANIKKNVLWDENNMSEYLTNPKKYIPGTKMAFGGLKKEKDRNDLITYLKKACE
Cytochrome c isoform 1 C108T, P00044, sequence (P00044 whole entry C108T, canonical isoform): as the sequence (P00044 whole entry, canonical isoform) above, with C108T counted along it
Cytochrome c isoform 1 R19C|C108T, P00044 R19C C108T, sequence (P00044 whole entry R19C/C108T, canonical isoform): as the sequence (P00044 whole entry, canonical isoform) above, with R19C, C108T counted along it
Cytochrome c isoform 1 D96C|C108T, P00044 D96C C108T, sequence (P00044 whole entry D96C/C108T, canonical isoform): as the sequence (P00044 whole entry, canonical isoform) above, with D96C, C108T counted along it

Turning to Cytochrome c isoform 1 C108T, P00044, for the setting “structure 1YCC”, the “ddG of mutation (higher = less stable)” value is -4.09 kcal/mol, the denaturant m value amounted to 1.79 kcal/mol/M, the “denaturant midpoint (higher = more stable)” value (“denaturant midpoint” below) stood at 3.6 M and the unfolding free energy is 6.48 kcal/mol.
The matching figures for “Cytochrome c isoform 1 D96C|C108T, P00044 D96C C108T”: -0.91 kcal/mol, 1.2 kcal/mol/M, 2.8 M and 3.3 kcal/mol.
“Cytochrome c isoform 1 R19C|C108T, P00044 R19C C108T”: under “structure 1YCC”, the “ddG of mutation (higher = less stable)” value was -4.21 kcal/mol, the denaturant m value turned out to be 1.79 kcal/mol/M, the “denaturant midpoint” value was found to be 3.7 M and the unfolding free energy was determined as 6.6 kcal/mol.
For the substance “Cytochrome c isoform 1 wild type, P00044”, the denaturant m value is 0.91 kcal/mol/M, the “denaturant midpoint” value came out at 2.6 M and the unfolding free energy came to 2.39 kcal/mol.
